Reference: patent US20250320278A1 (LA JOLLA INSTITUTE FOR IMMUNOLOGY, published 2025)

Columns and labels:
[1] = molecular target: T1, SARS-CoV-2 N protein, full-length (SARS-CoV-2, UniProt P0DTC9 1-419); assay: Octet (BLI) kinetics
T1 construct: mature; also called SARS-CoV-2 nucleoprotein

[2] = molecular target: T2, SARS-CoV-2 N protein RNA-binding domain (SARS-CoV-2, UniProt P0DTC9 44-180); assay: Octet (BLI) kinetics
[3] = molecular target: T3, SARS-CoV-2 N protein oligomerization domain (SARS-CoV-2, UniProt P0DTC9 247-364); assay: Octet, KD (nM) heat map
T3 construct: also called N olig. domain; OD

[4] = molecular target: T2, SARS-CoV-2 N protein RNA-binding domain; assay: Octet, KD (nM) heat map

B1: NP3-B2 (antibody, V domains shown)
VH: QIQLVQSGGGLVKPGGSLKLSCAASGFTFSDYYMSWVRQTPEKRLEWVATISDGGSYTYYPDSVKGRFTISRDNAKNNLYLHMSSLKSEDTAMYYCARGSTYGNPLDYWGQGTTLTVSS
VL: DIQMTQTTSSLSASLGDRVTINCSASQGISNYLNWYQQKPDGTVKLLIYFTSSLHSGFPSRFSGSGSGTDFSLTISNLEPEDIATYYCQQYSKLPFTFGSGTKLEIK
- Kd [1]: 1.51 nM
- Kd [2]: 0.9 nM
- binding result [3]: no binding

B2: NP3-F10 (antibody, V domains shown)
VH: EVQLQQSGAELVEPGAPVKLSCKAFGYTFTSYWMNWVKQRPGRGLEWIGRIDPSDSETHYNQNFKDKAALTVDRSSSTAYIHLSSLTSEDSAVYYCAREVTTATKGVFSWLAYWGQGTLVTVSA
VL: DIQMTQTTSSLSASLGDRVTISCSASQDISDYLNWYQQKPDGTIKLLIYYTSSLHSGAPSRFSGSGSGTDYSLTISNLEPEDIATYYCQQYSKLPWTFGGGTKLELK
- Kd [1]: 2.53 nM
- Kd [2]: 5.6 nM
- binding result [3]: no binding

B3: NP3-E5 (antibody, V domains shown)
VH: EVQLVESGGGLVKPGGSLKLSCAASGFTFSDYYMSWVRQTPEKRLEWVATISDGGNYTYYPDSVKGRFTISRDNAKNNLYLQMSSLKSEDTAMYYCARGSTYGNPLDHWGQGTTLTVSS
VL: DIQMTQTTSSLSASLGDRVTINCSASQGISNYLNWYQQKPDGTVKLLIYYTSILHSGVPSRFSGSGSGTDYSLTISNLEPEDIATYYCQQYSKLPFTFGSGTKLEIK
- Kd [1]: 0.8 nM
- Kd [2]: 1.38 nM
- binding result [3]: no binding

B4: NP3-G6 (antibody, V domains shown)
VH: EVQLVESGGGLVKPGGSLKLSCAASGFTFSDYYMSWVRQTPEKRLEWVATISDGGSYTYYPDSVKGRFTISRDNAKNNLYLHMSSLKSEDTAMYYCARGSTYGNPLDYWGQGTSVTVSS
VL: DIQMTQSPASLSASLGDRVTINCSASQGISNYLNWYQQKPDGTVKLLIYFTSSLHSGFPSRFSGSGSGTDFSLTISNLEPEDIATYYCQQYSKLPFTFGSGTKLEIK
- Kd [1]: 0.43 nM
- Kd [2]: 0.88 nM
- binding result [3]: no binding

B5: NP3-G5 (antibody, V domains shown)
VH: EVQLVESGPELKKPGEPVRISCKASGYTFTDYGMNWVKQAPGKGLKWMGWINTYTGEPTYADDFKGRFAFSLETSASTAFLQITNLKNEDTATYFCARAPLLRSYFDYWGQGTSVTVSS
VL: DIVMTQSHKFMSTSVGDRISITCKASQDVSTAVVWYQQKPGQSLKLLIYSASYRYTGVPDRFTGSGSGTDFTFTISSVQAEDLAIYYCQQYYSTPFTFGSGTKLEIK
- binding result [3]: no binding

B6: NP3-F7 (antibody, V domains shown)
VH: EVQLQQSGAELVRPGSSVKISCKASGYAFSSYWMNWVKQRPGQGLEWIGQIYPGNGDTYYNGKFMGKATLTADKFSSTAYMQLSGLTSEDSAVYFCARRPLFYAMDYWGQGTSVTVSS
VL: DIVLTQSPGSLAVSLGQRATISCKASQSVDYDGDSYMNWYQQKPGQPPKLLIYAASNLESGIPVRFSGSGSGTDFTLNIHPVEEEDAATYYCQQSNEDPWTFGGGTKLELK
- binding result [4]: no binding

B7: NP3-D5 (antibody, V domains shown)
VH: DVQLQESGPELVRPGVSVKISCKGSGYTFTDYVMHWVKQSHAKSLEWIGVISTYSGNTNYNQKFKGKATMTVDKFSNTAYMELARLTSEDSAIYYCTRGTGDFDYWGQGTTLTVSS
VL: DIVMTQSHKFMSTSVGDRVSITCKASQDVGTAVAWYQQKPGQSPKLLIYWASTRHTGVPDRFTGSGSGTDFTLTISNVQSEDLADYFCHQYSSYPYTFGGGTKLEIK
- binding result [3]: no binding

B8: NP3-E11 (antibody, V domains shown)
VH: EVQLQQSGPELVRPGVSVKISCKGSGYTFTDYVMHWVKQSHAKSLEWIGVISTYSGNTNYNQKFKGKATMTVDKSSNTVYMELARLTSEDSAIYYCTRGTGDFDYWGQGTTLTVSS
VL: DIVMTQSHKFMSTSVGDRVSITCKASQDVGSAVAWYQQKPGQSPKLLIYWTSTRHTGVPDHFTGSGSGTDFTLTINNVQSEDLADYFCHQYSSYPYTFGGGTKLEIK
- Kd [1]: 1.23 nM
- Kd [2]: 0.57 nM
- binding result [3]: no binding

B9: NP3-B1 (antibody, V domains shown)
VH: QVQLQQSGPELVKPGTSVTVYCKASGYTFTTYNIYWVKQSHGKSLEWIGYIDPYNGGTSYNQKFKGKATLTVDKSSSAAYMHLNSLTSEDSAVYYCALPWDYWGQGTTVTVSS
VL: not shown
- Kd [1]: 2.01 nM
- binding result [3]: no binding

B10: NP3-D1 (antibody, V domains shown)
VH: DVQLQESGPELAKPGASVKVSCKASGYTFTSYNIYWVKQSHGKSLEWIGYIDPYNGGTSYNQKFKGKATLTVDKSSSTAYMHLNSLTSEDSAVYYCALPWDYWGQGTSVTVSS
VL: not shown
- Kd [1]: 5.63 nM
- Kd [2]: 0.0015 nM
- binding result [3]: no binding

B11: NP3-E2 (antibody, V domains shown)
VH: EVQLQQSGPEVVRPGVSVKISCKGSGYTFTDYALHWVKQSHTKSLEWIGVISTYSGTTNYNQNFKGKATMAVDKSSSTAYMELARLTSEDSAIYYCASGGNYGLDYWGQGTSVTVSS
VL: DIVMTQSHKFMSTSVGDRVSITCKANQDVGSAVAWYQEKPGQSPKLLIYWTSTRHTGVPDRFTGNGSGTDFTLTISNVQSEDLVDYFCQQYSRYPLTFGSGTKLELK
- Kd [1]: 0.57 nM
- binding result [3]: no binding

B12: NP3-H12 (antibody, V domains shown)
VH: QIQLVQSGPELKKPGETVKISCKASGYMFTNYGMNWVKQAPGKGLKWMGWINTYTGEPTYADDFKGRFAFSLDISGSTAYLQINNLKNEDMATYFCARTREIWGNVDFPYWGQGTLVTVSA
VL: DILMTQAAPSLSVSVGETVTITCRASENIYSDLAWYQHKEGKSPQLLVYAATDLADGVPSRFSGSGSGTQYSLKINSLQSEDFGNYYCQHFWGTPWTFGGGTKLEIK
- Kd [1]: 0.72 nM
- Kd [2]: 1.89 nM
- binding result [3]: no binding

B13: NP3-E4 (antibody, V domains shown)
VH: EVQLVESGPGLVAPSQSLSITCTVSGFSLTSYGVSWVRQPPGKGLEWLGVIWGDGSTNYHSALISRLSINKDNSKSQVFLRLNSLQTDDTATYYCAKEDDGYLFYFDYWGQGTTLTVSS
VL: DIKMTQSPSSLSASLGDRVTISCSASQDISDYLNWYQQKPDGTVKLLIYYTSSLHSGVPSRFSGSGSGTDYSLTISNLEPEDIATYYCQQYSKLPYTFGGGTKLEIK
- Kd [1]: 0.71 nM
- Kd [2]: 3.46 nM
- binding result [3]: no binding

B14: NP3-B4 (antibody, V domains shown)
VH: EVQLVESGGGLVQPGGSVKLSCLASGFTFSDYYMSWVRQSPEKGLEWVAEIRLESDNYATHYAESVKGKFTISRDDSKSRLYLKMNSLRGEDTGIYYCAFDVYYGGAMDYWGQGTTVTVSS
VL: DIQMTQSPSIMSASPGEKVTMTCSASSSVSYMHWYQQKSSTSPKLWIYDTSELASGVPGRFSGSRSGNSYSLTISSMEAEDVATYYCFQGSGYPLTFGGGTKLELK
- binding result [4]: no binding

B15: NP3-A11 (antibody, V domains shown)
VH: EVQLQESGPELKKPGETVKISCKVSGYTFTNYGMNWVKQAPGKGLKWMGWINTYTGEPKYGDDFKGRFALSLETSAGTAYLRINNLKNEDTATYFCARSHGNYENHFDYWGQGTTLTVSS
VL: DIQMTQSPSSLSVSVGETVTITCRASENIYSSLAWYQQKQGKSPQLLVYTATDLADGVPSRFSGSGSGSQYSLRINSLQSEDFGSYYCQHFWGFPWTFGGGTKLEIK
- Kd [1]: 0.71 nM
- Kd [2]: 1.01 nM
- binding result [3]: no binding

B16: NP3-F4 (antibody, V domains shown)
VH: EVQLVESGPELKKPGETVKIPCKTSGYTFTNYGMNWVKQAPGKGLKWMGWINTNTGEPTYAEDFKGRFAFSLETSASTAYLQISNLKNEDTATFFCARGSIYDGYYEGLYYWGQGTTLTVSS
VL: DIKMTQSPSSLSVSVGETVTITCRASENIYSNLAWYQQKQGKSPQLLVSAATNLADNVPSRFSGSGSGTQYSLKINSLQSEDFGSYYCQHFWGFPRTFGGGTKLEIK
- Kd [1]: 2.84 nM
- Kd [2]: 5.57 nM
- binding result [3]: no binding

B17: NP3-E3 (antibody, V domains shown)
VH: QIQLVQSGPDLKKPGETVKISCKASGYTFTDYSMHWVKQVPGKGLKWMGWINTETDKPTYADDFKGRFAFSLETSASTAYSQINNLKNEDTATYFCARHYKYDEAWSPYWGQGTLVTVSA
VL: DIVLTQSPASLSVSVGETVTITCRASENIYSNLAWYQQKQGQSPQLLVYAATDLADGVPSRFSGSGSGTQYSLKINSLQSEDFGNYYCQHFWGTPWTFGGGTKLEIK
- Kd [2]: 1.36 nM
- binding result [3]: no binding

B18: NP3-H9 (antibody, V domains shown)
VH: QIQLVQSGPELKKPGETVKISCKASGYTFTDYPIHWVKQAPGKGLKWMGWINAETGEPTYADDFKGRFVVSLETSASTAYLQINNLKNEDTATFFCARHYRYDEAWFVYWGQGTLVTVSA
VL: DVQITQSPSSLSVSVGETVTITCRASENIYSNLAWYQQKQGKSPQLLVYAATDLADGVPSRFSGSGSGTHYSLKINSLQSEDFGSFYCQHFWGTPWTFGGGTKLEIK
- Kd [1]: 5.2 nM
- Kd [2]: 3.16 nM
- binding result [3]: no binding

B19: NP3-C5 (antibody, V domains shown)
VH: QIQLVQSGPELKTPGETVKISCKASGYTFTNCGMHWVKQAPGKGLKWMGWINTYTGEPIYADDFKRRFAFSLETSASTAYLQINNLNNEDTASYFCARRDDVYYVAGFDYWGQGTTVTVFS
VL: DIQMTQSPASLSVSVGETVTITCRASENIYSNLAWYQQKQGKSPQLLVYGATDLADGVPSRFSGSGSGTQYSLKINSLQSEDFGSYYCQHFWGTPWTFGGGTKLELK
- Kd [1]: 0.73 nM
- Kd [2]: 0.62 nM
- binding result [3]: no binding

B20: NP3-B9 (antibody, V domains shown)
VH: EVQLQQSGPELKKPGETVKISCKTSGYTFTNCGMHWVKQAPGKGLKWMGWINTYTGEPTYADDFKGRFAFSLETSVNTAYLQINNLKSEDTASYFCARRDDVYYVAGFDYWGQGTTLTVSS
VL: DIQMTQSPASLSVSVGETVTITCRASENIYSNLAWYQQKQGKSPQLLVNGATDLADGVPSRFSGSGSGTQYSLKINSLQSEDFGSYYCQLFWGTPWTFGGGTKLEIK
- Kd [1]: 0.38 nM
- Kd [2]: 0.47 nM
- binding result [3]: no binding
